Biological target: His-tagged PD-L1 (programmed death-ligand 1) (UniProt Q9NZQ7)
Test: co-immunoprecipitation (IP: His, IB: Flag)
Conditions: co-transfected plasmids, parent: 1.0

Chain of UniProt Q9NZQ7 (Q9NZQ7 19-290): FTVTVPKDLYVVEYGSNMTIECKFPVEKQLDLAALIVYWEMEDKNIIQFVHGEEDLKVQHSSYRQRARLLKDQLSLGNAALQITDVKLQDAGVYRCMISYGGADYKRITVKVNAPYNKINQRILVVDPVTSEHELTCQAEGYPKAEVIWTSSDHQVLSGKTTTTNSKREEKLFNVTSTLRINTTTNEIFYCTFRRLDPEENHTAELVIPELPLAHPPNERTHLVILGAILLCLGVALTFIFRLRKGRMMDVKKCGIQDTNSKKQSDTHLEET

## Flag-tagged ZG16 (zymogen granule protein 16) (from UniProt O60844) K36A; R37A; K79A; R53A; R55A
HCT116 cells
  ratio to parent: 0.6
SW480 cells
  ratio to parent: 0.5

Source: publication PMC9281127
